The results in this text go back to US20100298541A1 (published 2010).

Residue numbers refer to the chain shown, from its start.

First the molecules themselves.
B1: 2H6 (designed binder)
chain: IEVKDVTDTTALITWATPSVFDSHIEGCELTYGIKDVPGDRTTIDLTEDENQYSIGNLKPDTEYEVSLICWKHHGDAWSKETFTT
B2: 10D9 (designed binder)
chain: IEVKDVTDTTALITWSPPLFCCQKTGCELTYGIKDVPGDRTTIDLTEDENQYSIGNLKPDTEYEVSLICFKLTGFLYSKETFTT
notes: Lower case q in the BC loop is a TAG codon read as glutamine in the suppressor strain
B3: 8B3 (designed binder)
chain: IEVKDVTDTTALITWSPPEYAFYYTGCELTYGIKDVPGDRTTIDLTEDENQYSIGNLKPDTEYEVSLICVKNCGLFSNPAKETFTT
B4: 7G11 (designed binder)
chain: IEVKDVTDTTALITWAKPSIVNGFISGCELTYGIKDVPGDRTTIDLTEDENQYSIGNLKPDTEYEVSLICDKCFGAMKSKETFTT
B5: 2F4 (designed binder)
chain: IEVKDVTDTTALITWSPCIMVCLRTGCELTYGIKDVPGDRTTIDLTEDENQYSIGNLKPDTEYEVSLICRRGDMSGAPAKETFTT
B6: 5B10 (designed binder)
chain: B5 chain with I19L, M20F
B7: 6C7 (designed binder)
chain: IEVKDVTDTTALITWAKPMSCSGYIQGCELTYGIKDVPGDRTTIDLTEDENQYSIGNLKPDTEYEVSLICAKLTGWLCSKETFTT
notes: Lower case q is a TAG codon read as glutamine
B8: 6F11 (designed binder)
chain: IEVKDVTDTTALITWSPSVARMLETGCELTYGIKDVPGDRTTIDLTEDENQYSIGNLKPDTEYEVSLICITLCGRGVSKETFTT
B9: 2F02 (designed binder)
chain: IEVKDVTDTTALITWSPSRGGTSLTGCELTYGIKDVPGDRTTIDLDQVRATYSIGNLKPDTEYEVSLICHTNSGQPSNPAKETFTT
B10: 1C06 (designed binder)
chain: IEVKDVTDTTALITWSPRMYTWIQTGCELTYGIKDVPGDRTTIDLTHLSGSYSIGNLKPDTEYEVSLICLKLTRTHISKETFTT
B11: 2A12 (designed binder)
chain: IEVKDVTDTTALITWSPCCQEFTLTGCELTYGIKDVPGDRTTIDLHNHHHHYSIGNLKPDTEYEVSLICITDAGNKSNPAKETFTT
B12: 1C10 (designed binder)
chain: IEVKDVTDTTALITWSPCCPYDRYTGCELTYGIKDVPGDRTTIDLQSSRSHYSIGNLKPDTEYEVSLICITTFGHVSNPAKETFTT
B13: 1D8 (designed binder)
chain: IEVKDVTDTTALITWSPCQMLSSLTGCELTYGIKDVPGDRTTIDLNIERPKYSIGNLKPDTEYEVSLICFTMTGYRSNPAKETFTT
B14: 1A03 (designed binder)
chain: IEVKDVTDTTALITWAPPPFSNSCIIGCELTYGIKDVPGDRTTIDLRPGRASYSIGNLKPDTEYEVSLICSTGTGLPSNPAKETFTT
B15: 2B04 (designed binder)
chain: IEVKDVTDTTALITWAPPMLTDSEINGCELTYGIKDVPGDRTTIDLTSSYWSYSIGNLKPDTEYEVSLICSTLRRNAISKETFTT
notes: also called 2B4
B16: 2A11 (designed binder)
chain: IEVKDVTDTTALITWSPPFRAGHVTGCELTYGIKDVPGDRTTIDLVTARCQYSIGNLKPDTEYEVSLICTTGNGLRSNPAKETFTT
B17: 1G11 (designed binder)
chain: IEVKDVTDTTALITWSWAQANPGGCELTYGIKDVPGDRTTIDLWHSITFYSIGNLKPDTEYEVSLICKTKVQSSNPAKETFTT
B18: 1C12 (designed binder)
chain: IEVKDVTDTTALITWAKPEKWDGSIYGCELTYGIKDVPGDRTTIDLNSRHTAYSIGNLKPDTEYEVSLICFTPYGAKSNPAKETFTT
notes: also called monomeric 1C12
B19: 1H05 (designed binder)
chain: IEVKDVTDTTALITWSPGMFDQVRTGCELTYGIKDVPGDRTTIDLGKYWERYSIGNLKPDTEYEVSLICRNQYGQHQSKETFTT
B20: 1E05 (designed binder)
chain: IEVKDVTDTTALITWSPCSPCQLVTGCELTYGIKDVPGDRTTIDLSCTRAKYSIGNLKPDTEYEVSLICINKLGDTSNPAKETFTT
B21: 2F08 (designed binder)
chain: IEVKDVTDTTALITWSHAGGIRIGCELTYGIKDVPGDRTTIDLHVWQVYYSIGNLKPDTEYEVSLICMTPYLLGNPAKETFTT
B22: 1B04 (designed binder)
chain: IEVKDVTDTTALITWSPSHGVESSTGCELTYGIKDVPGDRTTIDLHGLQRVYSIGNLKPDTEYEVSLICAKICGHLVSKETFTT
B23: 1E03 (designed binder)
chain: IEVKDVTDTTALITWAAPFFGSSYISGCELTYGIKDVPGDRTTIDLHYYVTRYSIGNLKPDTEYEVSLICVNLSGHMPSKETFTT
notes: also called 1E3
B24: 2G03 (designed binder)
chain: IEVKDVTDTTALITWSPGPLLRHTTGCELTYGIKDVPGDRTTIDLRPIPRAYSIGNLKPDTEYEVSLICRNRPQQSNPAKETFTT
B25: 3B11 (designed binder)
chain: IEVKDVTDTTALITWSPCQLLALITGCELTYGIKDVPGDRTTIDLNSRHYHYSIGNLKPDTEYEVSLICYTSTGQRSNPAKETFTT
B26: 1B12 (designed binder)
chain: IEVKDVTDTTALITWAKPRQGGSNISGCELTYGIKDVPGDRTTIDLYHKGLHYSIGNLKPDTEYEVSLICPKMTGYTYSKETFTT
B27: 2D3 (designed binder)
chain: IEVKDVTDTTALITWSPGGFQKITTGCELTYGIKDVPGDRTTIDLVNRRNHYSIGNLKPDTEYEVSLICLTYKARAISKETFTT
B28: D1-Fc (Fc fusion)
chain: IEVKDVTDTTALITWSPGERIWMFTGCELTYGIKDVPGDRTTIDLTEDENQYSIGNLKPDTEYEVSLICPNYERISNPAKETFTTGA
notes: not shown: hinge and Fc region of human IgG1
B29: D1-Cκ/D1-IGHG1 (other)
light: IEVKDVTDTTALITWSPGERIWMFTGCELTYGIKDVPGDRTTIDLTEDENQYSIGNLKPDTEYEVSLICPNYERISNPAKETFTTGGGTPT
heavy: B29 light
notes: Control two chain tetravalent construct of D1; not shown: human C-kappa region (constant region of an antibody kappa light chain); heavy chain constant region of human IgG1 (IGHG1)
B30: SynBP01-Fc (Fc fusion)
chain: IEVKDVTDTTALITWSPPSVLVGYTIELTYGIKDVPGDRTTIDLTEDENQYSIGNLKPDTEYEVSLISVTEFGRRRSKETFTT
notes: Chimeric fusion made in 293EBNA cells from pOE-SynBP01; Called bivalent; also called SynBP01 scaffold fused to an Fc region; not shown: CH2 and CH3 domains of IgG1 Fc from the pOE-Fc vector
B31: SynBP01 (designed binder)
chain: AAIEVKDVTDTTALITWSPPSVLVGYTIELTYGIKDVPGDRTTIDLTEDENQYSIGNLKPDTEYEVSLISVTEFGRRRSKETFTTGGGTLEHHHHHH
notes: also called SYNAGIS® specific Tn3 scaffold
B32: 5E5 (designed binder)
chain: IEVKDVTDTTALITWSLAPGYRLGCELTYGIKDVPGDRTTIDLTEDENQYSIGNLKPDTEYEVSLICVKLCMRGNPAKETFTT
notes: also called TRAIL-R2 specific clone 5E5

T1 sequence (O14763 54-182 limits assumed): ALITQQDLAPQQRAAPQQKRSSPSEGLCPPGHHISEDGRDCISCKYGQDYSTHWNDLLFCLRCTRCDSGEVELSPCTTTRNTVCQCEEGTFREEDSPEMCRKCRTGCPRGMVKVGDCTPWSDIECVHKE

One assay concerns the target T1, TRAIL-R2/Fc fusion protein (R & D Systems) (UniProt O14763 54-182, limits assumed).
T1 construct: not shown: Fc part of the bought fusion; captured with anti-human IgG Fc antibody
The assay can be described thus: TRAIL-R2 phage ELISA. In general terms: ELISA stands for enzyme-linked immunosorbent assay.
For the molecule B1, the binding result is given as “binds”. In the case of B2, the binding result is reported as “binds”. The same measure, in the same setting: for B3 the value was “binds”; for B4, “binds”; for B5, “binds”. In the case of B6, the binding result is “binds”. On to B7, for which the binding result is recorded as “binds”. Still for that read-out and setting: for B8 the value was “binds”.

In a further assay the target is T1, TRAIL-R2/Fc fusion protein (R & D …). The assay can be described thus: TRAIL-R2 phage ELISA. The source holds these as a separate data set.
Turning to B9, the binding result was “binds”. On the same count and under the same terms, for B10 the value was “binds”; for B11, “binds”. Still for that read-out and setting: for B12 the value was “binds”; for B13, “binds”. As for B14, the binding result is listed as “binds”. Same read-out and setting: next, B15: “binds”.

B16: the binding result is on record as “binds”. The same measure, in the same setting: next, B17: “binds”; B18: “binds”; B19: “binds”.

Regarding B20, the binding result is on record as “binds”. Still for that read-out and setting: next, B21: “binds”; B22: “binds”. The same measure, in the same setting: for B23 the value was “binds”. On the same count and under the same terms, next, B24: “binds”; B25: “binds”; B26: “binds”.

B27: the binding result is given as “binds”.

A further assay has the same target. The experiment in a line: Attana biosensor, TRAIL-R2 chip. On the procedure:
A qualitative comparison of binding by monomeric 1C12, 1C12-Fc and 1C12-Cκ/1C12-IGHG1 proteins was performed by injecting samples of each of these proteins over a TRAIL-R2 chip on an Attana biosensor instrument.
In the case of B28, the binding result is “no binding”.

For B29, the binding result is recorded as “no binding”.

For another assay, the target named is SYNAGIS®. The assay can be described thus: SPR (BIAcore 3000), SYNAGIS® immobilized, both injected at 1 µM. On the technique in general: In SPR one partner is held on a chip, and binding of the other changes the refractive index at the surface.
SYNAGIS®, sequence (VH, as listed by the source, chain 1 of 2): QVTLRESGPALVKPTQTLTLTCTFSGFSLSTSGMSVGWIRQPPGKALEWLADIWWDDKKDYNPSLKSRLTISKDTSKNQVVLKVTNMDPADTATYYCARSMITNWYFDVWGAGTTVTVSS
SYNAGIS®, sequence (VL, as listed by the source, chain 2 of 2): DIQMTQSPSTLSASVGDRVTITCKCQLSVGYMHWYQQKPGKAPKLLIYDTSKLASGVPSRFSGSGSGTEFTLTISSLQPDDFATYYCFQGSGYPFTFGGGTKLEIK
B30: the “fold increase in total response units compared to SynBP01” value is around 6 fold.

A further assay addresses SYNAGIS®. The assay can be described thus: SPR (BIAcore 3000), SYNAGIS® amine-coupled to the chip, equilibrium binding of SynBP01.
The Kd is a measure of binding affinity in units of concentration. B31 registered a Kd of 16 µM.

The target of the next assay is T1, TRAIL-R2/Fc fusion protein (R & D …). The assay can be described thus: SPR (BIAcore), TRAIL-R2/Fc captured on goat anti-human-Fc IgG, 5E5 injected; from kon and koff. Here is the method:
Goat anti-human-Fc IgG was immobilized at a density of ˜7700 RUs onto a flow cell of a CM5 Biacore sensor chip surfaces using a standard amino coupling protocol (BIAcore, Inc.). Separately, a blank surface was also prepared on the same chip using the identical coupling protocol, minus the protein. This blank surface was used as a reference cell throughout the experiment, and served to correct for both non-specific binding and certain housekeeping artifacts.
After baseline stabilization, solutions of the Tn3 clone 5E5 (Table 7) were injected over both the captured ligand and control surfaces. Between injections, the Fc-capture surface was regenerated with two 1 min. injections of 10 mM Gly, pH2.
Several buffer and control protein injections were also interspersed throughout the injection series. Later, these buffer injections were used, along with the reference cell data, to correct the raw data sets for injection artifacts and/or non-specific ‘binding’ through a technique commonly referred to as “double-referencing.” (Myszka, D. G. (1999) J. Mol. Recognit. 12, pp. 279-284). Sensorgram overlays of the fully corrected data were generated using the BIAevaluation 4.1 software (BIAcore, Inc, Uppsala, Sweden). The affinity of 5E5 for binding to TRAIL-R2 was calculated by measuring the kₒₙ and koff.values in the BIAevaluation software for the sensorgram shown in FIG. 13.
B32: the Kd was around 700 nM.
